Laboratory results published in article PMC6974248, ““Yellow” laccase from Sclerotinia sclerotiorum is a blue laccase that enhances its substrate affinity by forming a reversible tyrosyl-product adduct” (PLoS ONE, 2020).

T1: blue laccase (Sclerotinia sclerotiorum, UniProt A7EM18)
T1 construct: gene SS1G_06365; native, secreted, purified from culture medium; ~66 kDa glycoprotein; blue form (phenolics removed by preparative native PAGE or low-coloured medium)
T1 sequence (A7EM18 28-577): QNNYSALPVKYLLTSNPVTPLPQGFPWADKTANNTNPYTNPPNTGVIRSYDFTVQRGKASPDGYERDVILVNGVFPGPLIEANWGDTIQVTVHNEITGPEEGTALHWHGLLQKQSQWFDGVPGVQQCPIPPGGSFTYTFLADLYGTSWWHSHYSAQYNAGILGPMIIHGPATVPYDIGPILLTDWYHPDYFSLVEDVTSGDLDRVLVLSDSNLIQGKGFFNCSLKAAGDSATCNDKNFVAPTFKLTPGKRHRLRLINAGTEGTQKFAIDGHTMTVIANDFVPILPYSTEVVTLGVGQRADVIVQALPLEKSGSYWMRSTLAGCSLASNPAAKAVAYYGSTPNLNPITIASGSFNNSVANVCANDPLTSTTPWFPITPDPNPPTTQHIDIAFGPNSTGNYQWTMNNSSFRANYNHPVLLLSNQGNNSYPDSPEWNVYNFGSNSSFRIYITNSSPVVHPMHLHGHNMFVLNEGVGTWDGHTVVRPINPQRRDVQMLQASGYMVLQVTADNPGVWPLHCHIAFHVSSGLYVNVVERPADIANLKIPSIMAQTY


Tests used:
[1] = molecular target: T1, blue laccase; test: UV-vis after desalting; assay type: binding; details: covalent, adduct of the radical product formed on turnover, site not identified; 25 mM MES pH 6.3
[2] = substrate: CCn1c(=NN=c2sc3cc(S(=O)(=O)O)ccc3n2CC)sc2cc(S(=O)(=O)O)ccc21; test: purified protein; assay type: biochemical, Sclerotinia sclerotiorum; details: 50 mM acetate pH 4, relative SD 5–20%
[3] = substrate: Cc1cc(-c2cc(C)c(N)c(C)c2)cc(C)c1N; test: purified protein; assay type: biochemical, Sclerotinia sclerotiorum; details: 50 mM acetate pH 4, relative SD 5–20%

| Molecule | UV-vis after desalting [1] | Km [2] | kcat [2] | Km [3] | kcat [3] |
| --- | --- | --- | --- | --- | --- |
| COc1ccccc1O [guaiacol] | purple with ABTS, red with guaiacol, orange with TMB |  |  |  |  |
| Cc1cc(-c2cc(C)c(N)c(C)c2)cc(C)c1N [TMB, 3,3’,5,5’-tetramethylbenzidine] | purple with ABTS, red with guaiacol, orange with TMB |  |  |  |  |
| yellow laccase (Sclerotinia sclerotiorum 1980 UF-70) (protein, native, secreted, purified from culture medium; ~66 kDa; as-isolated yellow form, natural covalent phenolic adduct of the same protein as P1) QNNYSALPVKYLLTSNPVTPLPQGFPWADKTANNTNPYTNPPNTGVIRSYDFTVQRGKASPDGYERDVILVNGVFPGPLIEANWGDTIQVTVHNEITGPEEGTALHWHGLLQKQSQWFDGVPGVQQCPIPPGGSFTYTFLADLYGTSWWHSHYSAQYNAGILGPMIIHGPATVPYDIGPILLTDWYHPDYFSLVEDVTSGDLDRVLVLSDSNLIQGKGFFNCSLKAAGDSATCNDKNFVAPTFKLTPGKRHRLRLINAGTEGTQKFAIDGHTMTVIANDFVPILPYSTEVVTLGVGQRADVIVQALPLEKSGSYWMRSTLAGCSLASNPAAKAVAYYGSTPNLNPITIASGSFNNSVANVCANDPLTSTTPWFPITPDPNPPTTQHIDIAFGPNSTGNYQWTMNNSSFRANYNHPVLLLSNQGNNSYPDSPEWNVYNFGSNSSFRIYITNSSPVVHPMHLHGHNMFVLNEGVGTWDGHTVVRPINPQRRDVQMLQASGYMVLQVTADNPGVWPLHCHIAFHVSSGLYVNVVERPADIANLKIPSIMAQTY |  | 14.1 µM | 5.7 s⁻¹ | 2.70 µM | 3.1 s⁻¹ |
